Reference: the supplement of paper PMC10065799, “High-throughput profiling of sequence recognition by tyrosine kinases and SH2 domains using bacterial peptide display” (eLife, 2023)

How the values were obtained:
FGFR1 = FGFR1 (UniProt P11362); experiment: phosphorylation enrichment, bacterial display (enrichment ratio); higher = better substrate or ligand; peptides without Tyr show the background
EPHB1 = EPHB1 (UniProt P54762); experiment: as above
AncSZ = experiment: as above
MERTK = MERTK (UniProt Q12866); experiment: as above
Fyn = Fyn (UniProt P06241); experiment: as above
Fes = Fes (UniProt P07332); experiment: as above
c-Abl (mouse) = experiment: as above
Hck = Hck (UniProt P08631); experiment: as above
Jak2 = Jak2 (UniProt O60674); experiment: as above
EPHB2 = EPHB2 (UniProt P29323); experiment: as above
Fer (mouse) = experiment: as above
c-Src = experiment: as above
FGFR3 = FGFR3 (UniProt P22607); experiment: as above
c-Src SH2 = experiment: SH2 binding enrichment of the phosphorylated peptide, bacterial display (enrichment ratio); higher = better substrate or ligand; peptides without Tyr show the background
SHP2-C SH2 = experiment: as above
Grb2 SH2 = Grb2 SH2 (UniProt P62993); experiment: as above
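For SH2 binding enrichment of the phosphorylated peptide, bacterial display in this document: peptide library displayed on the E. coli surface as eCPX fusions, selected cells deep-sequenced, score is each peptide's frequency after selection divided by its frequency in the input.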
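For phosphorylation enrichment, bacterial display in this document: 11-residue human phosphosite peptides and single-mutation variants displayed on the E. coli surface, counted by deep sequencing, each peptide's frequency after selection divided by its frequency in the unselected input library; frequency after pTyr selection over input frequency; kinase dosed for 20-30% of maximal phosphorylation in three min.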

Chain of FGFR1 (P11362 whole entry, looked up): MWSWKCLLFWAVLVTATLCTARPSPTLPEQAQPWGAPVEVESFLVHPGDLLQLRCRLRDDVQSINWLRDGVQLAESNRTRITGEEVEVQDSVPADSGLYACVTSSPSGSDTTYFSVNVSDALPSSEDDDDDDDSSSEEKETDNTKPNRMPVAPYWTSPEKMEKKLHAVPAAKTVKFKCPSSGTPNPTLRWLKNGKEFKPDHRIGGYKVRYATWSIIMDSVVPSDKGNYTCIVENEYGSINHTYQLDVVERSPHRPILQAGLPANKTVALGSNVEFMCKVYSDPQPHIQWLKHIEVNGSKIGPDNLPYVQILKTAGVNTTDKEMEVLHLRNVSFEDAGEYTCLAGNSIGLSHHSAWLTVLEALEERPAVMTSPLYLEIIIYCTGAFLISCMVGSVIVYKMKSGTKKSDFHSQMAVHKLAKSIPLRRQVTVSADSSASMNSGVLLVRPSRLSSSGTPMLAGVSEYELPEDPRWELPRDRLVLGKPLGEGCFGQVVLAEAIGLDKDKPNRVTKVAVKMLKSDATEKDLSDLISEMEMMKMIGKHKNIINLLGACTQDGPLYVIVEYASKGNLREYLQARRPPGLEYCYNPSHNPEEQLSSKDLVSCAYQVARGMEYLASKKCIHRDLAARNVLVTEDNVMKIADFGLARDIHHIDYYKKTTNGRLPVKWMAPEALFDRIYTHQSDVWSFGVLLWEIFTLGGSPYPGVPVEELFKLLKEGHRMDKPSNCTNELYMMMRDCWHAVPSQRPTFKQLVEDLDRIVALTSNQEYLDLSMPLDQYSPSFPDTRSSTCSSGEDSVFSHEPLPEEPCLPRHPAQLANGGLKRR
Chain of Hck (P08631 whole entry, looked up): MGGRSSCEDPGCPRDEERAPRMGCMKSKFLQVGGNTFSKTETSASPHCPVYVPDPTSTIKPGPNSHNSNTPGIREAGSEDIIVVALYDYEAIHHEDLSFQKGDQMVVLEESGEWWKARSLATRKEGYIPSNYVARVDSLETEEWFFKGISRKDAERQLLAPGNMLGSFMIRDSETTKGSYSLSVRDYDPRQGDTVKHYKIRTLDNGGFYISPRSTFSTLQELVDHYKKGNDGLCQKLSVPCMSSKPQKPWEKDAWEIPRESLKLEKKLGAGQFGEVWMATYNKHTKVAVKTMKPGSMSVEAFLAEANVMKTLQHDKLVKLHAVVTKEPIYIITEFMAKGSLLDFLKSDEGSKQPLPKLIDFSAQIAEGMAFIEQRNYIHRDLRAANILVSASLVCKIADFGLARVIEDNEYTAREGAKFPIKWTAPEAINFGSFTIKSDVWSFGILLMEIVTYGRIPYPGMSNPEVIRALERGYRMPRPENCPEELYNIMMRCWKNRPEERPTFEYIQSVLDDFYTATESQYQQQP
Chain of MERTK (Q12866 whole entry, looked up): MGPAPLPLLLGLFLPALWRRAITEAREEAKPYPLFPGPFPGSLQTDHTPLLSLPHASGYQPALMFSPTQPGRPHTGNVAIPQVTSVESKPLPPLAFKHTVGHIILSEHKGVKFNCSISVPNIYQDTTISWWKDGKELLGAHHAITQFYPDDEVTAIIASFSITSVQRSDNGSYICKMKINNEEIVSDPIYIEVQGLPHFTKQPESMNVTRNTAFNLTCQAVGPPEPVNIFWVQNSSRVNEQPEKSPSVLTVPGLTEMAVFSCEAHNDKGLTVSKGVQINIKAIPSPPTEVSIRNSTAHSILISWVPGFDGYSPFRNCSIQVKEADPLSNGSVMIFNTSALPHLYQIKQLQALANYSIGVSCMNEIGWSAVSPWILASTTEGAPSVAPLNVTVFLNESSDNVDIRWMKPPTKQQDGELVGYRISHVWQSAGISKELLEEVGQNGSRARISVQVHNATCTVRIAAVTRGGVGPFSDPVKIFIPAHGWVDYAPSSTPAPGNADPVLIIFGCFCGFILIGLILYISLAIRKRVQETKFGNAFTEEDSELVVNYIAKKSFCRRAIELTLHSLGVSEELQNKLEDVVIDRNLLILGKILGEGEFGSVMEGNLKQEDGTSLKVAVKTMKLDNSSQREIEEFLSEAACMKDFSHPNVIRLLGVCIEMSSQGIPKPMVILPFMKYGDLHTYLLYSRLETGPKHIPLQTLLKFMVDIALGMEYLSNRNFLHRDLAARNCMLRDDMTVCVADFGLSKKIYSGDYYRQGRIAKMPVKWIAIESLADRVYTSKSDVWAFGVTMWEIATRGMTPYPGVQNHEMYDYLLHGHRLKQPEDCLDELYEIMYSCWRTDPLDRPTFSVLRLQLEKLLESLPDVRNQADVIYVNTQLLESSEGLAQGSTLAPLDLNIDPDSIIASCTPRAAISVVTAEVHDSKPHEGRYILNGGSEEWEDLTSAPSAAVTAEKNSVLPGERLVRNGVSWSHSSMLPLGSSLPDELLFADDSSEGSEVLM
Chain of EPHB1 (P54762 whole entry, looked up): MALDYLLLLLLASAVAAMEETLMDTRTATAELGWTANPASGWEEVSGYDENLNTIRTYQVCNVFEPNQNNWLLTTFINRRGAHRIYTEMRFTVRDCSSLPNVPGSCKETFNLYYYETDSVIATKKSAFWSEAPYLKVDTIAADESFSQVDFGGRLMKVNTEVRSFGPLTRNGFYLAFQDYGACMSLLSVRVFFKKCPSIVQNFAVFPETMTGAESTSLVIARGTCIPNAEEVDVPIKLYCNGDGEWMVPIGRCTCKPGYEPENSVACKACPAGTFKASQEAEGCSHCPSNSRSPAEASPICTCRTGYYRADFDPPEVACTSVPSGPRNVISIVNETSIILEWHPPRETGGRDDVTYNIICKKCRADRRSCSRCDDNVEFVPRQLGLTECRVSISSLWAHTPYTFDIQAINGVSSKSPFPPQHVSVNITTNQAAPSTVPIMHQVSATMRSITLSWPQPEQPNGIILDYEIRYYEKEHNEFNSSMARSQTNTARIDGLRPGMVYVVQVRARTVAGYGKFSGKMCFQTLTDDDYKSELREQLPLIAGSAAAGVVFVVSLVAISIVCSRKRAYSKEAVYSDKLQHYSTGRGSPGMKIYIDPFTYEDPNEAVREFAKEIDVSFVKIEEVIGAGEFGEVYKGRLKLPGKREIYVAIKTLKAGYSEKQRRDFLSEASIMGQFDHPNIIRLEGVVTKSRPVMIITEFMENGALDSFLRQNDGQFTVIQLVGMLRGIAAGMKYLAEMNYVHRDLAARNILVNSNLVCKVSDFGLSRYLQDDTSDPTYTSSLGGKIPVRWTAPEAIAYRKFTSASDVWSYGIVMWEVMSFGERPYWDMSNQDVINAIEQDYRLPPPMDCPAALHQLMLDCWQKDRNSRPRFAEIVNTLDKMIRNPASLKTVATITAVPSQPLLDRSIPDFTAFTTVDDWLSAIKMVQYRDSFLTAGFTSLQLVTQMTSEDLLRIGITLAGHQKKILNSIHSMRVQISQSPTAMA
Chain of Grb2 SH2 (P62993 whole entry, looked up, the tested form may be a part): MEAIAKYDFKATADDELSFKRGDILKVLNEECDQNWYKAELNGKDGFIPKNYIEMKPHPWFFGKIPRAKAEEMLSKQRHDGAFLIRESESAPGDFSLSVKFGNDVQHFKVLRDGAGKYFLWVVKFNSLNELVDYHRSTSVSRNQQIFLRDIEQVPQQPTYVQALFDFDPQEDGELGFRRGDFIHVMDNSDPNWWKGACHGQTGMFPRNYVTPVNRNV
Chain of FGFR3 (P22607 whole entry, looked up): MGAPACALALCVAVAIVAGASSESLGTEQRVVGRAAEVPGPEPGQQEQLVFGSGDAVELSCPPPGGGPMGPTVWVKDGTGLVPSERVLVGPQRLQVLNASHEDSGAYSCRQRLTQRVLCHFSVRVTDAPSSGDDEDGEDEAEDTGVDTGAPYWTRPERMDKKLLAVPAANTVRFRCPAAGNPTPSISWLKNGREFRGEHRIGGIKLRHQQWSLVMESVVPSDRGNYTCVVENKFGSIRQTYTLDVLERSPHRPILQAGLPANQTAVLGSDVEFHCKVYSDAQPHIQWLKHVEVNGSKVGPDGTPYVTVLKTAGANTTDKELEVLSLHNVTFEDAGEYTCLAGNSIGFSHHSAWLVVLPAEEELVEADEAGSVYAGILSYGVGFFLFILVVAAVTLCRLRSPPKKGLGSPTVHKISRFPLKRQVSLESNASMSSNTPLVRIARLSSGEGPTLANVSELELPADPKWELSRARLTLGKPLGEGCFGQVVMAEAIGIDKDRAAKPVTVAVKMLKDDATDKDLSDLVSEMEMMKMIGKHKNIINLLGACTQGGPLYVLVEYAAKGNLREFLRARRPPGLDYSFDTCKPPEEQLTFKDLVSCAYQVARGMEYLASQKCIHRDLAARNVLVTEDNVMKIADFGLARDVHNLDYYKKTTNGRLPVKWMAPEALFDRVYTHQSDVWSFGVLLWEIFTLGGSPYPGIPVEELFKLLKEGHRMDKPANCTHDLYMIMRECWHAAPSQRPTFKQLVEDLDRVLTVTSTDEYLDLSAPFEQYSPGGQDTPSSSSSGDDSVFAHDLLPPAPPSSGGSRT
Chain of Fyn (P06241 whole entry, looked up): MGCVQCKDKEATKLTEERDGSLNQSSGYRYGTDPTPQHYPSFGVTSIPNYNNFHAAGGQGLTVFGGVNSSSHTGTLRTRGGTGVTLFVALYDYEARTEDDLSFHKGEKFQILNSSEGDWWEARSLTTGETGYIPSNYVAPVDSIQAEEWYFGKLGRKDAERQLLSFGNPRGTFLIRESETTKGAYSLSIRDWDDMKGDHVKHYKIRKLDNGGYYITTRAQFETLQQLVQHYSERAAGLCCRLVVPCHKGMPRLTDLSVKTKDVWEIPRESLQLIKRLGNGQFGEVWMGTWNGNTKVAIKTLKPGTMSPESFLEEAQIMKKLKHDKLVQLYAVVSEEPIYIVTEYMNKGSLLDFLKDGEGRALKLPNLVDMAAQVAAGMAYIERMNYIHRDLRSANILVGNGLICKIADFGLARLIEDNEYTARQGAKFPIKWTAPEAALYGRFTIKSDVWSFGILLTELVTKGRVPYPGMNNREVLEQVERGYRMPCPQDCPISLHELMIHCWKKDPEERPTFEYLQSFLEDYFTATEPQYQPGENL

Sequence	phosphorylation enrichment (FGFR1)	phosphorylation enrichment (EPHB1)	phosphorylation enrichment (AncSZ)	phosphorylation enrichment (MERTK)	phosphorylation enrichment (Fyn)	phosphorylation enrichment (Fes)	phosphorylation enrichment (c-Abl (mouse))	phosphorylation enrichment (Hck)	phosphorylation enrichment (Jak2)	phosphorylation enrichment (EPHB2)	phosphorylation enrichment (Fer (mouse))	phosphorylation enrichment (c-Src)	phosphorylation enrichment (FGFR3)	SH2 binding enrichment (c-Src SH2)	SH2 binding enrichment (SHP2-C SH2)	SH2 binding enrichment (Grb2 SH2)
VDLSKCITTIA [FAS_Y232_Y232C]	0.461	0.626	0.975	0.364	0.402	1.01	0.681	0.431	0.697	0.533	0.413	0.308	0.641	0.374	0.529	0.742
IVAREYYSDAD [CAMK2A_Y106_E109D]	0.657	0.775	1.04	0.41	0.473	1.13	0.828	0.525	0.959	0.647	0.589	0.559	0.633	3.1	0.833	0.869
SHSMRYFYTAV [HLA-C_Y31_D33Y]	0.778	0.71	1.04	3.29	0.611	1.26	0.691	0.631	1.2	0.689	0.587	0.928	0.893	2	1.97	1.28
LITTLYIGFLG [KCNQ1_Y267]	0.712	1.19	2.41	0.989	2.11	2.46	2.22	1.51	2.33	1.12	0.929	3.29	1.89	1.02	0.808	1.06
NKFTTYLPRLP [C9orf24_Y126_YF]	0.47	0.437	0.568	0.42	0.477	0.784	0.482	0.507	0.666	0.445	0.36	0.425	0.503	0.824	1.02	0.927
DEEYEYMNRRR [ERBB3_Y1199]	0.501	0.465	1.57	0.37	0.483	0.986	0.65	0.546	0.93	0.503	0.466	0.454	0.629	0.619	0.701	0.837
WRPFGYPCRRR [BCS1L_Y181_R183C]	0.496	0.422	0.622	0.509	0.442	0.643	0.544	0.457	0.394	0.435	0.458	0.517	0.462	0.435	0.488	0.746
DGMADYSDPSY [CDC5L_Y459]	0.611	1.33	1.43	0.496	0.571	1.3	0.859	0.487	1.47	1.71	0.486	0.538	0.686	0.459	0.616	0.833
HFECKYVINAI [MAOA_Y268_YF]	0.627	1.14	2.43	0.529	0.709	1.87	1.23	0.566	1.47	0.762	0.502	0.648	0.998	0.432	0.49	0.619
NRLTDYFELLL [BBS10_Y536_P539L_YF]	7.17	0.654	1.36	0.442	0.622	1.31	0.765	0.509	1.35	0.633	0.534	0.619	5	0.834	1.29	1.33
SAASGYSDVTD [DTX2_Y425_T421A]	0.633	0.646	0.866	0.294	0.232	0.95	0.446	0.458	0.963	0.589	0.535	0.338	0.569	6.28	0.979	1.98
LRWREYQRQDY [PRKRIP1_Y90_R87W]	0.626	0.439	1.12	0.409	0.574	0.957	0.737	0.453	0.997	0.761	0.376	0.486	0.585	1.26	1.32	1.46
LHAAAYWNALA [UQCRC2_Y182_R183W]	0.379	0.419	0.769	0.461	0.388	0.882	0.582	0.428	0.926	0.572	0.385	0.424	0.564	1.11	1.24	1.36
VVLEDYLDIKN [CLCNKB_Y138]	0.668	0.499	1.02	0.464	0.534	1.2	0.576	0.434	1.07	0.671	0.391	0.421	0.608	0.497	0.786	0.747
FMLFQYLKQIE [RPAP3_Y569_D564Y_YF]	0.468	0.539	1.12	0.482	0.447	1.36	1.07	0.505	1.27	0.716	0.506	0.498	0.783	1.08	1.48	1.53
SLGKGYSVGGC [MC4R_Y35_D37V]	0.456	0.523	0.724	0.354	0.432	0.898	0.593	0.434	0.846	0.501	0.484	0.384	0.627	0.517	0.867	0.888
AIIGIYILRDD [CDH23_Y2949]	0.484	0.831	1.24	0.546	1.18	1.5	0.965	0.951	1.35	0.788	0.676	2.76	0.753	1.04	1.11	1.47

Sequence	phosphorylation enrichment (FGFR1)	phosphorylation enrichment (EPHB1)	phosphorylation enrichment (AncSZ)	phosphorylation enrichment (MERTK)	phosphorylation enrichment (Fyn)	phosphorylation enrichment (Fes)	phosphorylation enrichment (c-Abl (mouse))	phosphorylation enrichment (Hck)	phosphorylation enrichment (Jak2)	phosphorylation enrichment (EPHB2)	phosphorylation enrichment (Fer (mouse))	phosphorylation enrichment (c-Src)	phosphorylation enrichment (FGFR3)	SH2 binding enrichment (c-Src SH2)	SH2 binding enrichment (SHP2-C SH2)	SH2 binding enrichment (Grb2 SH2)
MTFVFYRENLR [NLRP14_Y443_YF]	0.562	0.585	1.42	0.369	0.48	1.34	0.668	0.525	1.13	0.719	0.576	0.288	0.927	0.716	1.14	1.34
VVTFSYKPAGN [RBL2_Y544_P547A]	0.399	0.418	0.754	0.367	0.395	0.83	0.605	0.378	0.643	0.424	0.378	0.397	0.705	0.685	0.984	0.999
LAAAGYDVEKN [H1-3_Y72]	0.51	0.463	0.909	0.54	0.493	1.03	0.582	0.692	0.711	0.482	0.436	0.365	0.658	0.484	0.791	0.723
DESEDYRDTVV [CNNM3_Y456]	0.677	0.975	1.46	0.633	0.623	1.59	0.897	0.765	1.4	0.931	0.78	0.662	1.13	0.439	0.587	0.901
ESLSSYRESAK [APOC2_Y47_W48R]	0.382	0.252	0.63	0.391	0.342	0.529	0.495	0.305	0.487	0.317	0.314	0.303	0.456	0.556	0.795	0.858
GDNNIYVTKII [DLG1_Y349_S347N]	0.574	0.525	0.806	0.461	0.894	0.991	0.701	1.21	0.942	0.556	0.595	0.93	0.61	0.546	0.687	0.836
TGQEEYSAMRD [KRAS_Y64_A59T]	0.538	0.789	1.08	0.475	0.519	1	0.642	0.563	0.821	0.536	0.462	0.525	0.63	0.639	0.704	0.838
GGFTCYCDGKK [PROS1_Y266_YF]	0.457	0.608	1.12	0.419	0.485	1.19	0.758	0.484	0.998	0.515	0.511	0.354	0.865	0.409	0.591	0.779
LPHVIYCRLWC [SMAD2_Y128_R133C]	0.557	7.33	1.12	2.98	5.86	1.35	4.33	6.12	1.95	3.17	0.851	4.81	0.645	1.42	1.49	1.76
DDLEVYLKHPL [SACS_Y3477_L3481P]	0.643	0.871	1.53	0.562	1.26	1.31	0.842	1.73	1.32	0.625	0.558	1.85	0.735	0.341	0.592	0.604
LSPPVYLTNEW [NRK_Y885_I880L]	0.702	0.736	0.935	0.616	0.587	1.26	1.21	0.651	1.54	0.851	0.636	0.909	0.758	0.58	0.715	0.959
SGGMDYGMVGG [TNRC6B_Y1382]	0.404	0.471	0.571	0.384	2	0.574	0.52	0.702	0.517	0.806	0.389	1.95	0.494	0.401	0.765	0.765
EIRTQYEVMAS [GFAP_Y242_A244V]	0.493	0.445	0.74	0.378	0.484	0.839	0.615	0.49	1.07	0.476	0.49	0.437	0.635	6.97	0.89	0.767
DRIVNYSRASV [ATP7A_Y1459_I1464V]	0.467	0.482	0.702	0.574	0.423	0.79	0.563	0.45	0.732	0.438	0.449	0.468	0.535	0.533	0.706	0.766
KPLMPSMRYSR [SMARCE1_Y73_Y73S]	0.405	0.328	0.823	0.467	0.383	0.756	0.49	0.462	0.555	0.445	0.377	0.498	0.467	0.441	0.499	0.717
LNLDTYQKRLR [PLA2G2D_Y126_R121L]	0.69	0.44	0.517	0.511	0.672	0.613	0.502	0.518	0.389	0.42	0.336	0.442	0.518	0.39	0.63	0.797
